Measurements reported in the supplement of paper PMC12855868.

B1: library; numbered along this chain (parent)
chain: MAAAGGARLLRAASAVLGGPAGRWLHHAGSRAGSSGLLRNRGPGGSAEASRSLSVSARARSSSEDKITVHFINRDGETLTTKGKVGDSLLDVVVENNLDIDGFGACEGTLACSTCHLIFEDHIYEKLDAITDEENDMLDLAYGLTDRSRLGCQICLTKSMDNMTVRVPETVADARQSIDVGKTS

Variants of: B1
Assay: scaled log2 fold change in cell abundance, elesclomol vs control (0 = silent mean, 1 = nonsense mean) (scaled log2 ratio); higher = higher viability under elesclomol (loss of FDX1 cuproptosis function)
Conditions: glucose 10 mM
[1] = with ABC1 FDX1 KO, elesclomol 5 nM, 14 days
[2] = with HEK293T FDX1 KO, elesclomol 40 nM, 11 days
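Note: variant abundance is its share of total variant reads in each endpoint sample, from next-generation sequencing of the integrated ORF PCR-amplified out of genomic DNA.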

Variant	scaled log2 fold change [1]	scaled log2 fold change [2]
H27R	0.168	-0.247
H27T	-0.307	
H27N	-0.105	0.565
T78S	0.0645	0.487
T78C	-0.0788	
L144C	0.106	-0.265
R8T	-0.656	-0.382
R8W	0.232	0.198
A28N	-0.0865	-0.0101
A28I	-0.00142	0.691
A49L	-1.05	-0.62
A49H	0.394	0.441
G45M	0.116	-0.315
P20D	-0.0903	
P20L	0.585	-0.772
I123M	0.264	0.00397
I123D	0.248	0.132
L156D	1.12	0.926
I178P	-0.0627	0.399
I178W	0.246	-0.636
S50T	0.208	
S30Y	-0.00883	-0.262
S30Q	0.345	-0.23
L98T	-0.168	0.331

Variant	scaled log2 fold change [1]	scaled log2 fold change [2]
V69T	0.119	0.953
V69Q	1.14	0.294
V69Y	1.05	1.86
T68P	0.317	0.911
D136W	0.188	0.105
D179S	0.558	0.929
L110N	0.111	-0.0165
L110K	0.374	-0.159
H70F	0.152	0.385
H70A	0.42	-0.104
S56K	-0.052	0.357
S56A	0.574	
S56G	-1.11	0.888
S56H	0.238	0.979
S56D	-0.745	0.383
A4I	0.158	0.102
A4D	0.12	-0.0733
G44V	-0.00617	-0.478
A105E	0.163	-0.502
A105V	-0.318	
T109Q	-0.041	
T109P	0.947	0.81
D139P	-0.0434	-0.395
D139E	0.147	0.513

Variant	scaled log2 fold change [1]	scaled log2 fold change [2]
G76K	-0.353	-0.04
S148E	0.489	1.23
C155A	-0.331	-0.584
C155V	-0.17	-0.185
C155W	-0.0475	0.246
V94K	-0.573	-0.482
L53G	-0.239	-1.17
S46D	0.694	0.458
S46I	0.589	0.715
E107N	0.0244	-0.796
V55K	-0.469	-0.443
V93P	0.924	0.209
S14V	0.113	
S14E	0.366	0.442
G19P	0.54	
L127R	0.785	0.151
L127V	0.0908	0.603
L127A	0.297	1.31
L127G	0.701	-0.0303
H26Q	0.0786	1.39
H26T	0.206	0.037
M163V	-0.168	0.941
R58W	0.133	0.3
R58T	-0.167	-0.0694

Variant	scaled log2 fold change [1]	scaled log2 fold change [2]
D99K	0.114	-0.24
D99I	0.14	-0.0831
D99Y	-0.0205	0.198
E64G	-0.323	0.0488
G22E	-0.42	-0.0922
G22K	0.385	0.488
A7L	0.0503	0.262
R166V	-0.116	0.509
R166Q	-0.338	-0.083
R166S	0.275	-0.368
R166M	0.144	-0.000209
T114S	-0.416	0.997
T114Y	0.838	0.412
T114W	1.03	0.814
T114R	0.517	0.411
G5P	0.0147	-0.46
G5E	-0.0118	0.75
G5S	0.203	-0.121
G5D	0.153	0.63
F103W	0.392	-1.07
F103M	0.347	0.516
F103G	1.04	2.28
G18I	0.0859	-0.0341
Q176H	-0.0199	0.909

Variant	scaled log2 fold change [1]	scaled log2 fold change [2]
D173V	0.418	-0.196
S113Q	-0.139	-0.137
V171P	0.142	0.0269
V171I	-0.139	0.238
D132W	-0.0682	-0.335
D132P	-0.221	-0.681
H122C	-0.812	
C106S	1.19	1.14
C106A	1.03	1.51
C106D	1.03	1.3
R11N	0.137	0.131
R11F	0.139	-0.474
A21H	-0.455	-0.00969
N73S	0.237	
N73D	0.282	-0.23
N135I	-0.261	0.197
A111N	-0.0992	0.0245
E125V	0.114	-0.317
S184P	0.326	0.83
S184E	-0.0286	1.03
S184W	0.0507	0.713
S184I	0.126	-0.259
A12C	0.0882	0.2
A12D	0.231	0.265

Variant	scaled log2 fold change [1]	scaled log2 fold change [2]
G36F	-0.16	-0.239
L17I	-0.552	-0.833
D87G	-0.161	-0.147
G33V	0.127	0.731
K82I	0.215	0.419
A15C	0.107	0.017
E169W	-0.134	0.73
E169G	-1.32	0.409
G42D	-0.168	0.162
G42A	-0.139	0.0969
E133T	0.0196	0.842
T131K	-0.138	2.11
T131C	-0.2	-0.521
A174Y	0.11	0.358
G86K	0.242	-0.0346
G29Y	-0.628	
G29F	-0.118	-0.149
V165L	-0.0209	-0.834
V165R	1.09	1.45
S61D	1.01	1.93
E77T	-1.24	-0.154
R60Q	-0.0931	-0.217
A13H	0.0738	-1.05
K84I	0.197	1.03

Variant	scaled log2 fold change [1]	scaled log2 fold change [2]
N162T	-0.0302	0.362
A141K	0.122	-0.0127
S52A	0.665	0.164
S52I	-0.0467	-0.248
S52D	0.202	0.946
L138H	0.199	0.223
R149W	1.07	1.1
R149D	1.08	0.943
L150T	0.595	-0.16
S34C	0.0357	0.188
S34W	0.0117	0.853
S177D	-1.44	-0.675
S177H	0.139	-0.562
S177K	0.281	-0.228
A59V	-0.507	0.0474
R51S	0.00287	-0.516
R51L	0.0529	-0.247
R51Y	0.343	-0.174
Y142Q	-0.102	-0.021
A129C	-0.31	0.555
Y124I	0.367	0.0274
F71I	-0.753	-0.554
F71Q	1.3	0.999
S35Y	-0.531	-0.958

Variant	scaled log2 fold change [1]	scaled log2 fold change [2]
V92N	0.121	0.904
R23S	-0.477	
R175H	0.468	-0.908
R175K	0.138	-0.161
L10G	0.705	
P168V	0.143	-0.0343
K158Q	-0.363	-0.446
K158C	0.225	0.192
G83Y	0.73	0.383
V85W	0.119	0.889
V85C	-0.197	-0.0853
V85P	-0.0817	-1.46
V85R	0.266	-0.792
V85E	-0.055	-0.248
K182W	0.0276	0.909
T170D	0.239	
T170P	-0.219	0.16
T170C	0.268	-0.365
S159R	-0.282	0.159
S159D	-1.07	-0.414
I100V	-0.852	0.0203
I100L	-0.145	0.198
S54Q	0.175	1.12
L90G	0.46	0.288

Variant	scaled log2 fold change [1]	scaled log2 fold change [2]
L79N	0.26	0.247
L79T	-0.0538	
L79V	0.047	1.39
G108E	1.01	0.92
G108R	0.794	-0.104
L89R	1.16	0.853
L89W	0.552	1.33
A32Q	0.0849	-0.338
A32H	-0.58	-0.0637
G102M	-0.196	-0.665
C112M	1.09	1.24
C112Y	1.09	1.3
M160W	0.366	-0.0391
C115F	1	1.25
C115N	0.976	1.34
C115H	0.953	1.29
D146L	0.0782	-0.302
R39N	-0.39	-0.278
A3D	0.186	0.572
D128Q	-0.253	
D128E	0.267	0.301
T80M	0.0647	
T80N	0.128	
R147I	0.215	-0.172

Variant	scaled log2 fold change [1]	scaled log2 fold change [2]
G143T	0.153	-1.08
G143L	-0.0816	0.114
I130T	-0.0905	-0.0285
E120L	0.202	0.102
R41Q	-0.31	0.698
R41H	0.145	-0.535
R41M	0.173	0.0788
Q153H	0.41	-0.0151
I154W	0.968	0.877
C152E	1.03	1.1
G181R	-0.0624	0.814
G181M	-1.35	0.389
V16Y	0.461	0.705
A172L	-0.0445	-0.675
L37E	-0.0101	-0.121
I118L	0.0425	0.108
T183K	-0.157	-0.436
T183H	-0.16	-0.49
T183R	0.102	-0.367
D121P	-0.198	
D101K	0.0609	0.803
